PMC3334367 (Molecular Cell, 2012)
Blank lines part the entries; values can stand above or below the binder they belong to.

Target: T1, GST-RNC (GST fused N-terminal RNC domain of Kog1, amino acids 1-637) (yeast, UniProt P38873 1-637)
T1 sequence (looked up): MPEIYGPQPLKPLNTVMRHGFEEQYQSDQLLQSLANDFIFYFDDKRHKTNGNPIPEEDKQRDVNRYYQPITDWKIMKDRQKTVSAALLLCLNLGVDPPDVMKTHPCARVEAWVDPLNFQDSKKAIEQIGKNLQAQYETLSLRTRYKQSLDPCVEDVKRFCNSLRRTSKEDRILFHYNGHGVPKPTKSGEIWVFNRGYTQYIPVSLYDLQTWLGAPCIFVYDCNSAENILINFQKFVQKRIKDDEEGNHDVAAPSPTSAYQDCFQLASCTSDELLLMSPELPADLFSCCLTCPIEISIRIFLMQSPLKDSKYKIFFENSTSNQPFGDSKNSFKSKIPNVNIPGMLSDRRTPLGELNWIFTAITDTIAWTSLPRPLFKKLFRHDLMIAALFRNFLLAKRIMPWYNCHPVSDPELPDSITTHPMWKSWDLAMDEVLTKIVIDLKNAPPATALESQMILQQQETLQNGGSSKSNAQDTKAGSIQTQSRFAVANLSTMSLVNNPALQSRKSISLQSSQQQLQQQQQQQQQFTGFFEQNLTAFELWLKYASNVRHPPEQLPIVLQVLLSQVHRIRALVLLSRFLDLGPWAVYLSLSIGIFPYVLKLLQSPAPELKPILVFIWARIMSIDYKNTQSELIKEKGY
Assay: pull-down

- binding result: binds
B1: His tagged recombinant Rho1 (natural protein, yeast, UniProt P06780 1-209, looked up)
chain: MSQQVGNSIRRKLVIVGDGACGKTCLLIVFSKGQFPEVYVPTVFENYVADVEVDGRRVELALWDTAGQEDYDRLRPLSYPDSNVVLICFSIDLPDSLENVQEKWIAEVLHFCQGVPIILVGCKVDLRNDPQTIEQLRQEGQQPVTSQEGQSVADQIGATGYYECSAKTGYGVREVFEAATRASLMGKSKTNGKAKKNTTEKKKKKCVLL

- binding result: binds
B2: His tagged recombinant Tap42 (natural protein, yeast, UniProt Q04372 1-366, looked up)
chain: MASVTEQFNDIISLYSTKLEHTSLRQDSPEYQGLLLSTIKKLLNLKTAIFDRLALFSTNETIDDVSTASIKFLAVDYYLGLLISRRQSNDSDVAQRQSMKLIYLKKSVESFINFLTLLQDYKLLDPLVGEKLGNFKDRYNPQLSELYAQPKNNKDLSGAQLKRKEKIELFQRNKEISTKLHCLELELKNNDEDHDHDELLRELYLMRLHHFSLDTINNIEQNLFECEMLSNFLKNSVHEVKSSGTQIRKESNDDDSTGFTDKLENINKPLIDKKGQVLRNFTLVDKRQQLQQKVRGYGQYGPTMSVEEFLDKEFEEGRVLQGGEEPEQAPDEENMDWQDRETYKAREWDEFKESHAKGSGNTMNRG
